Laboratory results taken from article PMC6815954, “Rational design of caspase-responsive smart molecular probe for positron emission tomography imaging of drug-induced apoptosis” (Theranostics, 2019).

Substrate: CC(=O)N[C@@H](CC(=O)O)C(=O)N[C@@H](CCC(=O)O)C(=O)N[C@H](C(=O)N[C@@H](CC(=O)O)C(=O)N[C@@H](CSSC(C)(C)C)C(=O)N[C@@H](Cc1cn(CC[N+](C)(C)C[B-](F)(F)F)nn1)C(=O)Nc1ccc2nc(C#N)sc2c1)C(C)C
Test: Enzyme kinetics study of cleavage of 1
Format: biochemical, human
Details: other: 1 at 0.1-2 mM, caspase-3 0.4 μg/1 mL, assay buffer pH 7.4, 37 °C, 1 h, HPLC
Procedure: Figure S17. (A) HPLC traces of probe 1 incubated with the cell lysates of apoptotic HeLa cells for 8 h.
Bottom: probe 1 alone; Top: reduced product (*) and cyclized product (#). (B) The content of 1-dimer after incubation with the cell lysates of apoptotic HeLa cells at different time.
For the enzyme-controlled cleavage kinetics studies, the probe 1 at different concentrations (0.1, 0.25, 0.5, 1, and 2 mM) was incubated with the caspase-3 (0.4 μg/1 mL) assay buffer (pH = 7.4) containing 50 mM HEPES, 100 mM NaCl, 1 mM EDTA, 1 mM DTT, 10% glycerol, and 0.1% CHAPS at 37 °C for 1 h, respectively. Then the caspase-3-cleaved intermediates were characterized by HPLC, and the kinetic parameters were determined according to the method reported previously. 4,5
Figure S18. Kinetic studies for the cleavage of probe 1 towards caspase-3.
Biocompatibility of 1 and 1-NPs
One cancer cell line (HeLa) and three normal cell lines (GES-1, LO2 and HEK293) were cultured in DMEM supplemented with 10% fetal bovine serum (FBS, Gibco). The cells were grown in tissue culture dishes and kept in a humidified atmosphere of 5% CO 2 at 37 °C. The […]
(1 picture or pasted object on this page, not shown here)

B1: caspase-3 (Homo sapiens) (protein)
chain 1: SGISLDNSYKMDYPEMGLCIIINNKNFHKSTGMTSRSGTDVDAANLRETFRNLKYEVRNKNDLTREEIVELMRDVSKEDHSKRSSFVCVLLSHGEEGIIFGTNGPVDLKKITNFFRGDRCRSLTGKPKLFIIQACRGTELDCGIETD
chain 2: SGVDDDMACHKIPVEADFLYAYSTAPGYYSWRNSKDGSWFIQSLCAMLKQYADKLEFMHILTRVNRKVATEFESFSFDATFHAKKQIPCIVSMLTKELYFYH
B1 showed a Km of 330.43 µM, a kcat of 6.22 s⁻¹ and a kcat/Km of 17617.56 M⁻¹ s⁻¹.
